Data reported in article PMC3737525, “Structural and mechanistic basis of anti-termination of Rho-dependent transcription termination by bacteriophage P4 capsid protein Psu” (Nucleic Acids Research, 2013).

Experiments:
[1] = biological target: T1, C-terminal, HMK-tagged P167L Rho, 32P-labelled (UniProt P0AG30 1-419, P167L, radiolabelled with [γ-32P]ATP in the HMK tag using protein kinase A); assay: Fe-BABE hydroxyl-radical protein cleavage; 0.2 µM 32P-labelled HMK-tagged P167L Rho and 2.5 µM Fe-BABE-labelled Psu, 37°C 30 min, 50 mM MOPS, 120 mM NaCl, 0.1 mM EDTA, 10 mM MgCl2, 10% glycerol, pH 8.0, 1 mM ATP; cleavage started with 4 mM ascorbate and hydrogen peroxide; SDS-PAGE autoradiogram; conditions: both partners purified
T1 construct: Transcription termination factor Rho; also called P^32-labelled HMK-tagged P167L Rho; end-labelled Rho; not shown: HMK (heart muscle protein kinase) tag, C-terminal, kept

[2] = biological target: T1, C-terminal, HMK-tagged P167L Rho, …; assay: limited trypsin digestion (protein foot-printing); 0.2 µM 32P-labelled HMK-tagged P167L Rho with 2.5 µM WT Psu in transcription buffer with 1 mM ATP, 10 min 37°C, then increasing trypsin for 1 min; gradient SDS-PAGE autoradiogram; conditions: both partners purified
[3] = biological target: T2, TMRA-labelled S346C Rho (on P167L Rho) (UniProt P0AG30 1-419, P167L | C202S | S346C, tetramethylrhodamine-5-maleimide (TMRA) on the single cysteine at 346); assay: FRET or BRET; fluorescein-labelled Psu (50 nM) and TMRA-labelled Rho (100 nM), 25 mM Tris-HCl pH 8.0, 50 mM KCl, 5 mM MgCl2, 25°C, 15 min; excitation 470 nm, emission enhancement at 570 nm; conditions: both partners purified
T2 construct: Transcription termination factor Rho; natural cysteine removed, made on P167L Rho; also called TMRA–Rho S346C; source: labelled with tetramethylrhodamine-5-maleimide, excess dye removed

[4] = biological target: T3, TMRA-labelled S153C Rho (on P167L Rho) (UniProt P0AG30 1-419, P167L | C202S | S153C, tetramethylrhodamine-5-maleimide (TMRA) on the single cysteine at 153); assay: as above; conditions: both partners purified
T3 construct: Transcription termination factor Rho; natural cysteine removed, made on P167L Rho; also called TMRA–Rho S153C; source: labelled with tetramethylrhodamine-5-maleimide, excess dye removed

[5] = biological target: T4, Single Cys derivative S153C of P167L Rho (UniProt P0AG30 1-419, P167L | C202S | S153C); assay: cross-linking; sulpho-LC-SPDP (cysteine to amine): SPDP-derivatized 32P-labelled Psu (~0.5 µM) with single-Cys Rho derivatives (~2 µM), 10 min 25°C, phosphate buffer (100 mM NaH2PO4, 150 mM NaCl, 1 mM EDTA, pH 7.5); non-reducing 12% PAGE; species sensitive to DTT; conditions: both partners purified
T4 construct: Transcription termination factor Rho; natural cysteine removed, made on P167L Rho; also called S153C Rho

[6] = biological target: T5, Single Cys derivative S346C of P167L Rho (UniProt P0AG30 1-419, P167L | C202S | S346C); assay: as above; conditions: both partners purified
T5 construct: Transcription termination factor Rho; natural cysteine removed, made on P167L Rho; also called S346C Rho

[7] = biological target: the molecule itself; assay: as above

T3 sequence (P0AG30 whole entry S153C/P167L/C202S): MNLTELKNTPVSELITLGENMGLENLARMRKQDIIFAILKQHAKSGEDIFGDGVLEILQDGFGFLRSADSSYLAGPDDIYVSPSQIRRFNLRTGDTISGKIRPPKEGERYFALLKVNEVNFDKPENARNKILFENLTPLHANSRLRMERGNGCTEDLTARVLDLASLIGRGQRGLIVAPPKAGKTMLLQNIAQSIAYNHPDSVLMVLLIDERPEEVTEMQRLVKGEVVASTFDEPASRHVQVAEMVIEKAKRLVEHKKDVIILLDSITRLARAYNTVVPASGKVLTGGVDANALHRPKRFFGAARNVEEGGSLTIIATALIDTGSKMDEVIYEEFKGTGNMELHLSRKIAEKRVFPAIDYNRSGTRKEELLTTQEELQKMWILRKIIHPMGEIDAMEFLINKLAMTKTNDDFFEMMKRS
T1 sequence (P0AG30 whole entry P167L): as the sequence (P0AG30 whole entry S153C/P167L/C202S) above, with C153S, S202C counted along it
T2 sequence (P0AG30 whole entry P167L/C202S/S346C): as the sequence (P0AG30 whole entry S153C/P167L/C202S) above, with C153S, S346C counted along it
T4 sequence (P0AG30 whole entry S153C/P167L/C202S): as the sequence (P0AG30 whole entry S153C/P167L/C202S) above
T5 sequence (P0AG30 whole entry P167L/C202S/S346C): as the sequence (P0AG30 whole entry S153C/P167L/C202S) above, with C153S, S346C counted along it

B1: Fe-BABE-conjugated Psu S181C (natural protein, bacteriophage P4)
chain: MESTALQQAFDTSQNNKAAWLQRKNELAAAEQEYLRLLSGEGRNVSRLDELRNIIEVRKWQVNQAAGRYIRSHEAVQHISIRDRLNDFMQQHGTALAAALAPELMGYSELTAIARNSAIQRATDALREALLSWLAKGEKINYSAQDSDILTTIGFRPDVASVDDSREKFTPAQNMIFSRKCAQLASRQSV
modifications: Fe-BABE conjugated to the single cysteine at 181
notes: Psu (polarity suppressor), capsid-decoration protein of bacteriophage P4; natural cysteines removed; also called Fe-BABE-labelled Psu; source: conjugated with 5-fold molar excess of Fe-BABE (Pierce), desalted
**Q.** Does B1 bind [1]?
**A.** binds

B2: WT Psu (in vitro assays) (natural protein, bacteriophage P4)
chain: MESTALQQAFDTCQNNKAAWLQRKNELAAAEQEYLRLLSGEGRNVSRLDELRNIIEVRKWQVNQAAGRYIRSHEAVQHISIRDRLNDFMQQHGTALAAALAPELMGYSELTAIARNCAIQRATDALREALLSWLAKGEKINYSAQDSDILTTIGFRPDVASVDDSREKFTPAQNMIFSRKSAQLASRQSV
notes: Psu (polarity suppressor), 21 kDa capsid-decoration protein of bacteriophage P4; purification may stand in the Supplementary Methods
**Q.** Does B2 bind [2]?
**A.** binds

B3: Fluorescein-labelled Psu S161C (natural protein, bacteriophage P4)
chain: MESTALQQAFDTSQNNKAAWLQRKNELAAAEQEYLRLLSGEGRNVSRLDELRNIIEVRKWQVNQAAGRYIRSHEAVQHISIRDRLNDFMQQHGTALAAALAPELMGYSELTAIARNSAIQRATDALREALLSWLAKGEKINYSAQDSDILTTIGFRPDVACVDDSREKFTPAQNMIFSRKSAQLASRQSV
modifications: fluorescein-5-maleimide on the single cysteine at 161
notes: Psu (polarity suppressor), capsid-decoration protein of bacteriophage P4; natural cysteines removed; also called FL-labelled S161C Psu; source: labelled with fluorescein-5-maleimide, excess dye removed
**Q.** Which results are given for B3?
**A.** binding result [3]: binds; binding result [4]: binds

B4: Fluorescein-labelled Psu S181C (natural protein, bacteriophage P4)
chain: MESTALQQAFDTSQNNKAAWLQRKNELAAAEQEYLRLLSGEGRNVSRLDELRNIIEVRKWQVNQAAGRYIRSHEAVQHISIRDRLNDFMQQHGTALAAALAPELMGYSELTAIARNSAIQRATDALREALLSWLAKGEKINYSAQDSDILTTIGFRPDVASVDDSREKFTPAQNMIFSRKCAQLASRQSV
modifications: fluorescein-5-maleimide on the single cysteine at 181
notes: Psu (polarity suppressor), capsid-decoration protein of bacteriophage P4; natural cysteines removed; also called FL-labelled S181C Psu; source: labelled with fluorescein-5-maleimide, excess dye removed
**Q.** Which results are given for B4?
**A.** binding result [3]: binds; binding result [4]: binds

B5: SPDP-derivatized, HMK-tagged non-cysteine derivative of Psu (C13S and C117S) (natural protein, bacteriophage P4)
chain: MESTALQQAFDTSQNNKAAWLQRKNELAAAEQEYLRLLSGEGRNVSRLDELRNIIEVRKWQVNQAAGRYIRSHEAVQHISIRDRLNDFMQQHGTALAAALAPELMGYSELTAIARNSAIQRATDALREALLSWLAKGEKINYSAQDSDILTTIGFRPDVASVDDSREKFTPAQNMIFSRKSAQLASRQSV
modifications: 32P end-label in the HMK tag; primary amines (lysines) labelled with sulpho-LC-SPDP
notes: Psu (polarity suppressor), capsid-decoration protein of bacteriophage P4; natural cysteines removed; also called SPDP-labelled Psu; radiolabelled Psu; source: labelled with sulpho-LC-SPDP (Pierce), desalted
**Q.** Does B5 bind [5]?
**A.** binds

**Q.** Does B5 bind [6]?
**A.** binds

**Q.** What about the “stoichiometry N” value [7] of the same binder?
**A.** 2
